Experimental data taken from patent US20190284262A1 (Memorial Sloan Kettering, published 2019).

Columns and labels:
[1] = molecular target: T1, Foxp3-7 peptide/HLA-A*02:01 complex on the cell surface (human); test: flow cytometry, phage on T2 + Foxp3-7 peptide; secondary only 318, unstained 95.8
T1 construct: also called Foxp3-7/HLA-A2 complex

[2] = molecular target: T2, HLA-A*02:01 on T2 cells alone (no peptide added) (human); test: flow cytometry, phage on T2 cells, no peptide
T2 construct: TAP-deficient T2 cells without pulsed peptide; negative control target, and the HLA molecule whose stabilisation by peptides is read in the T2 stabilization assay; also called HLA-A*02 molecule; HLA-A2 molecule

[3] = molecular target: T2, HLA-A*02:01 on T2 cells alone (no …); test: flow cytometry, phage on T2 without peptide
[4] = molecular target: T3, 017-mut1 peptide (…)/HLA-A*02:01 complex on T2 cells (human); test: flow cytometry, phage on peptide-loaded T2 cells
T3 construct: Alanine mutant of Foxp3-7 at position 1, pulsed onto T2 cells; also called EXT017-mut1

[5] = molecular target: T4, 017-mut3 peptide (…)/HLA-A*02:01 complex on T2 cells (human); test: flow cytometry, phage on peptide-loaded T2 cells
T4 construct: Alanine mutant at position 3

[6] = molecular target: T5, 017-mut7 peptide (…)/HLA-A*02:01 complex on T2 cells (human); test: flow cytometry, phage on peptide-loaded T2 cells
T5 construct: Alanine mutant at position 7

[7] = molecular target: T6, 017-mut4 peptide (…)/HLA-A*02:01 complex on T2 cells (human); test: flow cytometry, phage on peptide-loaded T2 cells
T6 construct: Alanine mutant at position 4

[8] = molecular target: T7, 017-mut8 peptide (…)/HLA-A*02:01 complex on T2 cells (human); test: flow cytometry, phage on peptide-loaded T2 cells
T7 construct: Alanine mutant at position 8; also called TLI-A8

[9] = molecular target: T1, Foxp3-7 peptide/HLA-A*02:01 complex on …; test: flow cytometry, phage on peptide-loaded T2 cells
[10] = molecular target: T8, 017-mut2 peptide (…)/HLA-A*02:01 complex on T2 cells (human); test: flow cytometry, phage on peptide-loaded T2 cells
T8 construct: Alanine mutant at position 2, the anchor position; the peptide may load poorly onto HLA-A2; also called EXT017-mut2

[11] = molecular target: T9, 017-mut5 peptide (…)/HLA-A*02:01 complex on T2 cells (human); test: flow cytometry, phage on peptide-loaded T2 cells
T9 construct: Alanine mutant at position 5

[12] = molecular target: T10, 017-mut9 peptide (…)/HLA-A*02:01 complex on T2 cells (human); test: flow cytometry, phage on peptide-loaded T2 cells
T10 construct: Alanine mutant at position 9

T2+EW [13] = molecular target: T11, T2+EW (Homo sapiens, UniProt A*02:01); test: flow cytometry, phage on T2 + EW peptide; secondary only 310, unstained 93
T11 construct: on the surface of T2 cells; irrelevant control peptide; also called EW peptide/HLA-A*02:01 complex on T2 cells; T2 pulsed with EW peptide

[14] = molecular target: T12, R3 (RHAMM-R3) peptide/HLA-A*02:01 complex on T2 cells (human); test: flow cytometry, phage on T2 + R3 peptide (as the table names the samples); secondary only 109, unstained 80.9
T12 construct: Control target of the phage staining of T2 cells; also called T2 cells pulsed with R3 peptide; RHAMM 3 (R3)

[15] = molecular target: T1, Foxp3-7 peptide/HLA-A*02:01 complex on …; test: flow cytometry, phage on T2 + Foxp3-7 peptide; secondary only 104, unstained 81.7
[16] = molecular target: T2, HLA-A*02:01 on T2 cells alone (no …); test: flow cytometry, phage on T2 without peptide; secondary only 320, unstained 91.4
T2+EW [17] = molecular target: T11, T2+EW; test: flow cytometry, phage on T2 + EW peptide; secondary only 113, unstained 94.7
[18] = molecular target: T2, HLA-A*02:01 on T2 cells alone (no …); test: flow cytometry, phage on T2 without peptide; secondary only 100, unstained 99.5
[19] = molecular target: T2, HLA-A*02:01 on T2 cells alone (no …); test: flow cytometry, phage on T2 without peptide; remark: listed apart in the source
[20] = molecular target: T1, Foxp3-7 peptide/HLA-A*02:01 complex on …; test: flow cytometry, phage on T2 + Foxp3-7 peptide; secondary only 133, unstained 103
[21] = molecular target: T1, Foxp3-7 peptide/HLA-A*02:01 complex on …; test: flow cytometry, phage on T2 + Foxp3-7 peptide; secondary only 116, unstained 93.8
[22] = molecular target: T12, R3 (RHAMM-R3) peptide/HLA-A*02:01 …; test: flow cytometry, phage on T2 + R3 peptide; secondary only 123, unstained 99.8
[23] = molecular target: T2, HLA-A*02:01 on T2 cells alone (no …); test: flow cytometry, phage on T2 cells
[24] = molecular target: T2, HLA-A*02:01 on T2 cells alone (no …); test: flow cytometry, phage on T2 without peptide; secondary only 121, unstained 106

| Binder | Median:FITC-A [1] | MFI [2] | MFI [4] | MFI [5] | MFI [6] | MFI [7] | MFI [8] | MFI [9] | MFI [10] | MFI [11] | MFI [12] | Median:FITC-A (T2+EW [13]) | Median:FITC-A [14] | Median:FITC-A [15] | Median:FITC-A [16] | Median:FITC-A (T2+EW [17]) | Median:FITC-A [18] | binding result [19] | Median:FITC-A [20] | Median:FITC-A [21] | further results |
| --- | --- | --- | --- | --- | --- | --- | --- | --- | --- | --- | --- | --- | --- | --- | --- | --- | --- | --- | --- | --- | --- |
| EXT017-53 scFv phage clone (scFv, full-length scFv with His+HA tags; also called EXT017-53 phage) scFv: NFMLTQPHSVSESPGKTVTISCTRSSGSIASHYVQWYQQRPGSSPTTVIYENNQRPSGVPDRFSGSIDSSSNSASLTISGLKTEDEADYYCQSYDRSNHVVFGGGTKLTVLGSRGGGGSGGGGSGGGGSLEMAQVQLVQSGAEVKKPGASVKVSCKASGYTFTNYYIHWVRQAPGEGLEWMGIIRPSGGNTNYAQKFQGRVTMTRDTSTRTVYMELSSLRSEDTAVYYCARSWNSRDVDSWGQGTLVTVSSTSGQAGQHHHHHHGAYPYDVPDYAS | 1050 | 89.5 | 1100 | 5780 | 98.9 | 95.8 | 12100 | 25800 | 95.3 | 98.5 | 149 | 346 | 121 | 2700 | 355 |  |  |  |  |  | binding result [3]: no binding |
| Clone #10 (scFv, also called EXT017-10; EXT017-10 scFv phage clone) scFv (VL-linker-VH-His/HA tag): QAVLTQPPSASGTPGQRVTISCSGGSSNIGVNPVNWYQQLPGTAPKLLIFANYQRPSGVPDRFSGSKSGTSASLAISGLQSDDEAHYYCSTWDDSLNAWLFGGGTKLTVLGSRGGGGSGGGGSGGGGSLEMAEVQLVQSGAEVKKPGDSLRISCQGSGYSFTSYYISWVRQMPGKGLEWMGNIDPSDSYTNYSPSFQGHVTMSVDKSISTAYLQWSSLKASDIAIYYCVRHGFSNSPRLWFDTWGQGTLVTVSSTSGQAGQHHHHHHGAYPYDVPDYAS |  |  |  |  |  |  |  |  |  |  |  |  |  |  |  | 151 | 149 | no binding | 1130 |  |  |
| EXT017-28 scFv phage clone (scFv, full-length scFv with His+HA tags; also called EXT017-28 phage; phage clone #28) scFv: QSVLTQPPSVSGAPGQRVTISCTGSSSNIGAGYDVHWYQQLPGTAPKLLIYGNSDRPSGVPDRFSGSKSGTSASLAITGLQAEDEADYYCQSYDSSLSGYVFGTGTKVTVLGSRGGGGSGGGGSGGGGSLEMAQMQLVQSGAEVKKPGSSVKVSCKASGGTFSTYAISWVRQAPGQGLEWMGGIIPIFGTANYAQKFQGRVTITADKSTSTAYMEVRNLRSEDTAVYYCARAEYVYGEYDQWGQGTLVTVSSTSGQAGQHHHHHHGAYPYDVPDYAS | 1740 | 93.9 | 20100 | 13400 | 96.4 | 108 | 27500 | 39500 | 102 | 107 | 5890 | 338 | 118 | 2790 | 353 |  |  |  |  | 873 | Median:FITC-A [22]: 140; binding result [23]: no binding; Median:FITC-A [24]: 144 |
| Clone #24 (scFv, also called EXT017-24; EXT017-24 scFv phage clone) scFv (VL-linker-VH-His/HA tag): QAVLTQPPSVSAAPGQKVTISCSGSSSNIGNNYVSWYQQLPGTAPKLLIYDNNKRPSGLPDRFSGSKSGTSATLGITGLQTGDEADYYCGTWDSSLNAVVFGGGTQLTVLSSRGGGGSGGGGSGGGGSLEMAQVQLVQSGAEVKKPGASVKVSCKASGYTFTNYYIHWVRQAPGQGLEWMGIIRPSGGITNYAQKFQGRVTMTRDTSTSTVYMELSSLRSEDTAVYYCARSWSNKLSWYNDGWGQGTLVTVSSTSGQAGQHHHHHHGAYPYDVPDYAS |  |  |  |  |  |  |  |  |  |  |  |  |  |  |  | 141 | 146 | no binding | 1040 |  |  |
| Clone #23 (scFv, also called EXT017-23; EXT017-23 scFv phage clone) scFv (VL-linker-VH-His/HA tag): SYELTQPPSVSVAPGQTAWITCGGNNIGSKSVHWYQQKPGQAPILVVYDDSDRPSGIPERVSGSNSGNTATLTISRVEAGDEADYYCQVWDSSSDRWVFGGGTKLTVLGSRGGGGSGGGGSGGGGSLEMAQMQLVQSGAEVKKPGASVKVSCKASGYTFTNYGISWVRQAPGQGLEWMGWISPYNGNTNYAQKLQGRVTMTTDTSTSTAYMELRNLRSDDTAVYYCARYWDSGYAYDEWGQGTLVTVSSTSGQAGQHHHHHHGAYPYDVPDYAS |  |  |  |  |  |  |  |  |  |  |  |  |  |  |  | 144 | 141 | no binding | 982 |  |  |
| EXT017-17 scFv phage clone (scFv, fusion to the phage coat protein not described; also called EXT017-17 phage; phage clone #17) scFv: QSVLTQPPSVSGAPGQRVTISCTGSSSNIGAGYDVHWYQQLPGTAPKLLIYGNSNRPSGVPDRFSGSKSGTSASLAITGLQAEDEADYYCQSYDSSLSGYVFGTGTKVTVLGSRGGGGSGGGGSGGGGSLEMAEVQLVQSGAEVKKPGSSVKVSCKASGDTFSRYAISWVRQAPGQGLEWMGRIIPIFGTPNYAQKFQGRVTITADEFTSTAYMELSSLRSEDTAMYYCARSIYRYSEYDHWGQGTLVTVSSTSGQAGQHHHHHHGAYPYDVPDYAS |  | 92.9 | 7880 | 741 | 97.8 | 103 | 3590 | 23600 | 99.8 | 98.1 | 94.7 |  | 124 | 2590 |  | 144 | 151 |  | 1760 | 745 | Median:FITC-A [22]: 146; binding result [23]: no binding; Median:FITC-A [24]: 143 |
| Clone #5 (scFv, also called EXT017-5; EXT017-5 scFv phage clone) scFv (VL-linker-VH-His/HA tag): QSALTQPPSASGSPGQSVTISCTGTSSDVGGYNYVSWYQQHPGKAPKLMIYEVSKRPSGVPDRFSGSKSGNTASLTVSGLQAEDEADYYCSSYAGSNTHVVFGGGTKLTVLGSRGGGGSGGGGSGGGGSLEMAEVQLVQSGAEVKKPGASVKISCKASRYTFTNYYIHWVRQAPGQGLEWMGIINPSGGSTTYPQNFQGRLTMTRDTSTSTVYMELSSLRSEDTAMYYCARGWSGYDPGDFWGQGTLVTVSSTSGQAGQHHHHHHGAYPYDVPDYAS |  |  |  |  |  |  |  |  |  |  |  |  | 129 | 2460 |  | 149 | 142 | no binding | 2050 |  |  |
| EXT017-27 scFv phage clone (scFv, full-length scFv with His+HA tags; also called EXT017-27 phage; phage clone #27) scFv: QAVLTQPPSVSVAPGKTARLTCGGNNIGSESVHWYQQKPGQAPLLVVYDDDDRPSGIPERFSGSNSGNTATLTISRVEAGDEADYYCQVWDRSSDHWFFGGGTKLTVLGSRGGGGSGGGGSGGGGSLEMAQVQLVQSGAEVKKPGASVKVSCKASGYTFTNYYIHWVRQAPGQGLEWMGIIRPSGGITNYAQKFQGRVSMTRDTSTSTVYMELSSLRSEDTAVYYCARSWDYFASNDFWGQGTLVTVSSTSGQAGQHHHHHHGAYPYDVPDYAS | 1940 | 90.4 | 222 | 2260 | 96.3 | 99 | 6400 | 21200 | 98.2 | 95.4 | 131 | 371 | 123 | 2820 | 355 |  |  |  |  | 658 | Median:FITC-A [22]: 145; binding result [23]: no binding; Median:FITC-A [24]: 150 |
